Article PMC11296239

T1: RORα (mouse, UniProt P51448 1-523)
T1 sequence: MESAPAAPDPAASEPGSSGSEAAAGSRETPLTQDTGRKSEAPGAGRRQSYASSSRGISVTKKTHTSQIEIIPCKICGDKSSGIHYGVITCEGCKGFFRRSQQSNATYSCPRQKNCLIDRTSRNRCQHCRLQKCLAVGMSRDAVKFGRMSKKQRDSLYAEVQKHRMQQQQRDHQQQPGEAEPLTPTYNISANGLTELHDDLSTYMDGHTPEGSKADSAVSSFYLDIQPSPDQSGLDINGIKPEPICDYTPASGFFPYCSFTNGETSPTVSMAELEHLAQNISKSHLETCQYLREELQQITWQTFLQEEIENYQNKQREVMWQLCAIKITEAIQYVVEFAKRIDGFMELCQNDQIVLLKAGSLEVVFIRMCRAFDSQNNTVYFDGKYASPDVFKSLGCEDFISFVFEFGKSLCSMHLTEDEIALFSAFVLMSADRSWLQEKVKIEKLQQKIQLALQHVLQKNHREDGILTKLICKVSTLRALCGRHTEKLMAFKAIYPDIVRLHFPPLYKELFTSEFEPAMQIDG

T2: Rev-erbα (mouse, UniProt Q3UV55 1-615)
T2 sequence: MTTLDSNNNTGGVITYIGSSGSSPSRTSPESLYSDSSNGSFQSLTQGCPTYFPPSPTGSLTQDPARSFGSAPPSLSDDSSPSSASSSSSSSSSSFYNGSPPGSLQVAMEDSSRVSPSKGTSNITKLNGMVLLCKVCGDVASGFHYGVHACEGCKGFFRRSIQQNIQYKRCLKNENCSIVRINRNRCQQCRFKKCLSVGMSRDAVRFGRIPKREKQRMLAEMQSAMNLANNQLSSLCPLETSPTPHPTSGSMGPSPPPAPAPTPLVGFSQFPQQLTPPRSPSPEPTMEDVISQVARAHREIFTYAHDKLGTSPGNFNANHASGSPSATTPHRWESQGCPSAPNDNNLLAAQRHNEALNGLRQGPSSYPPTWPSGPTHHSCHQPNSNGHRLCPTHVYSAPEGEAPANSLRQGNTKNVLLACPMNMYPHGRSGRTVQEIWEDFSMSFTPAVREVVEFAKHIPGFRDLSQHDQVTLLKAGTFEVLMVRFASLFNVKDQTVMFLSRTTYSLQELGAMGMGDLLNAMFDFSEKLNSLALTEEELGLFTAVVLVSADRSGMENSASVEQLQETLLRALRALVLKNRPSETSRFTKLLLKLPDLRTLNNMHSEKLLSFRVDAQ

B1: mut h-RRE1 (dsDNA)
DNA 1: TTCCTCAACAGCCGATACATTGTTTC
DNA 2: GAAACAATGTATCGGCTGTTGAGGAA
B2: mut h-RRE2 (dsDNA)
DNA 1: TCACCTGCTTGACGGCTTGACAGACCG
DNA 2: CGGTCTGTCAAGCCGTCAAGCAGGTGA

Key:
[1] = biological target: T1, RORα; experiment: EMSA
[2] = biological target: T2, Rev-erbα; experiment: EMSA

Binder | binding result [1] | binding result [2]
B1 | no binding | no binding
B2 | no binding | no binding
